{"source": "patent US20240247301A1", "about": "“DIAGNOSTIC ASSAY FOR CLASSIC INBORN GALACTOSEMIA” (Ohio State Innovation Foundation, priority 2022, published 2024)", "molecules": {"B1": {"name": "Duarte GalT: recombinant His6-tagged Duarte variant of galactose-1-phosphate uridylyl transferase, clone from Addgene (GALTA-c001) (protein, UniProt P07902 1-379, looked up, variant N314D)", "Galactose-1-phosphate …": "MSRSGTDPQQRQQASEADAAAATFRANDHQHIRYNPLQDEWVLVSAHRMKRPWQGQVEPQLLKTVPRHDPLNPLCPGAIRANGEVNPQYDSTFLFDNDFPALQPDAPSPGPSDHPLFQAKSARGVCKVMCFHPWSDVTLPLMSVPEIRAVVDAWASVTEELGAQYPWVQIFENKGAMMGCSNPHPHCQVWASSFLPDIAQREERSQQAYKSQHGEPLLMEYSRQELLRKERLVLTSEHWLVLVPFWATWPYQTLLLPRRHVRRLPELTPAERDDLASIMKKLLTKYDNLFETSFPYSMGWHGAPTGSEAGANWDHWQLHAHYYPPLLRSATVRKFMVGYEMLAQAQRDLTPEQAAERLRALPEVHYHLGQKDRETATIA"}, "B2": {"name": "YidA: recombinant Salmonella sugar-phosphate phosphatase of the HAD superfamily, overexpressed in E. coli SixPack cells; SUMO tag removed unless stated (protein, listed as Salmonella typhimurium)", "chain": "MAIKLIAIDMDGTLLLPDHTISPAVKNAIAAAREKGVNVVLTTGRPYAGVHSYLKELHMEQPGDYCITYNGALVQKAGDGSTVAQTALSYDDYRYLEKLSREVGSHFHALDRNTLYTANRDISYYTVHESYVATIPLVFCEAEKMDPNTQFLKVMMIDEPAVLDRAIARIPAEVKEKYTVLKSAPYFLEILDKRVNKGTGVKSLVEALGIKPEEVMAIGDQENDIAMIEYAGMGVAMDNAIPSVKEVANFVTKSNLEDGVAWAIEKFVLNPDHSSGHFPAR", "modifications": "Description of sequence: YidA", "notes": "recombinant Salmonella sugar-phosphate phosphatase of the HAD superfamily, overexpressed in E. coli SixPack cells; SUMO tag removed unless stated"}, "B3": {"name": "E. coli YidA: E. coli YidA phosphatase documented in a previous study (Kuznetsova et al. 2006) (protein, UniProt P0A8Y5 1-270, looked up)", "Sugar phosphatase YidA": "MAIKLIAIDMDGTLLLPDHTISPAVKNAIAAARARGVNVVLTTGRPYAGVHNYLKELHMEQPGDYCITYNGALVQKAADGSTVAQTALSYDDYRFLEKLSREVGSHFHALDRTTLYTANRDISYYTVHESFVATIPLVFCEAEKMDPNTQFLKVMMIDEPAILDQAIARIPQEVKEKYTVLKSAPYFLEILDKRVNKGTGVKSLADVLGIKPEEIMAIGDQENDIAMIEYAGVGVAMDNAIPSVKEVANFVTKSNLEDGVAFAIEKYVLN"}, "B4": {"name": "YihX: recombinant Salmonella HAD-like sugar-phosphate phosphatase, overexpressed in E. coli BL21 (DE3) pLysS cells and refolded (protein, listed as Salmonella typhimurium)", "chain": "MLYIFDLGNVIVDIDFNRVLGVWSDLSRVPLASLKQKFTMGETFHQHERGEITDEAFAEAFCHEMALSLSYEQFAHGWQAVFVGLRPEVIAIMHKLREQGHRVVVLSNTNRLHTHFWPEEYPEVRAAADHIYLSQDLGMRKPEARIYQHVLQKEGFSAADAVFFDDNADNIEGANQLGITSILVKDKATIPDYFAKLLC", "modifications": "Description of sequence: YihX"}}, "key": {"[1]": {"settings": "Duarte GalT variant; cited from earlier work"}, "[2]": {"assay": "Duarte GalT-YidA coupled assay (malachite green)", "type": "biochemical", "settings": "recombinant Duarte GalT, substrate Gal-1-P", "method": "The assay contained 25 mM 4-(2-hydroxyethyl)-1-piperazineethanesulfonic acid (HEPES) (pH 8.0), 3 mM MgCl2, 2 mM DTT, 1 mM UDP-glucose (Sigma-Aldrich), 3 mM YidA, and varying amounts of His6-tagged Duarte GalT: 0.25 mM GalT for ≤0.1-mM Gal-1P, and 0.1 mM GalT for ≥0.1-mM Gal-1P (Table 3). […] These 2-μL aliquots were added to a 384-well plate which were pre-dispensed to test wells 18 μL of water and 5 μL of malachite green reagent. […] These specific time courses (using four time points; Table 3) and the appropriate dilutions were performed to maintain product formation in the linear range. To determine the Km and kcat values, the initial velocity calculated at each substrate concentration was subject to the Michaelis-Menten curve-fitting option in Kaleidagraph (Synergy Software)."}, "[3]": {"assay": "YidA substrate-specificity test, initial velocity for Glc-1-P versus Gal-1-P", "type": "biochemical, Salmonella", "settings": "3 mM Glc-1-P or 3 mM Gal-1-P, 3 mM MgCl2", "source_text": "FIGS. 1A-B show substrate-recognition bias of YidA for Glc-1-P over Gal-1P. […] The data represent mean±standard error determined from two independent trials. […] The Km and kcat values listed represent the mean±standard error from two independent trials.\nNearly homogeneous recombinant Salmonella YidA by overexpressing it in E. coli SixPack cells were obtained (Lipinszki et al. 2018) (FIG. 3A). N-terminal fusions with a small ubiquitin-like modifier (SUMO) domain were engineered to enhance solubility (Marblestone et al. 2006) and a His6 tag to facilitate affinity purification (FIG. 3A). To measure the phosphatase activity of YidA, malachite green, a cationic dye that forms with free orthophosphate and molybdate a green-colored complex (Abs620) was used; this assay can measure nanomolar concentrations of orthophosphate (FIG. 4). Since YidA is a Mg^2+-dependent phosphatase, its activity with Glc-1-P in the presence of 0-5 mM MgCl2 was first tested and determined that 3 mM MgCl2 was optimal (FIG. 5)."}, "[4]": {"settings": "earlier qualitative observation (Kuznetsova et al. 2006); cited from earlier work"}, "[5]": {"assay": "YihX kinetic studies (malachite green phosphate assay)", "type": "biochemical, Salmonella", "settings": "Glc 1-P versus 6-P-F-Asp", "source_text": "Top panel reproduced from Monroy, et al., 2013.\nThe Km and kcat values are listed here with their respective curve-fit errors (see summary in Table 4).\nSalmonella YihX was purified after overexpression in E. coli BL21 (DE3) pLysS cells. His6-YihX was purified under denaturing conditions using immobilized metal-affinity chromatography. Following purification, YihX was refolded by stepdown dialysis to remove the denaturant. […] YihX offers the basis for a simpler and more sensitive assay to diagnose classic galactosemia."}}, "data": [{"molecule": "B1", "values": [{"measurement": "activity relative to wild-type GalT", "setting": "[1]", "result": "~25", "unit": "%"}, {"measurement": "increase in kcat/Km, YidA-based assay versus PGM-G6PDH coupled assay", "setting": "[2]", "result": "~2.5", "unit": "fold"}]}, {"molecule": "B2", "values": [{"measurement": "preference for Glc-1-P over Gal-1-P (initial velocity)", "setting": "[3]", "result": "≥ 40", "unit": "fold"}]}, {"molecule": "B3", "values": [{"measurement": "dephosphorylation of Gal-1-P compared to Glc-1-P (qualitative)", "setting": "[4]", "result": "negligible dephosphorylation of Gal-1-P compared to Glc-1-P"}]}, {"molecule": "B4", "values": [{"measurement": "substrate hydrolysis (qualitative)", "setting": "[5]", "result": "hydrolyzes glucose 1-phosphate (Glc 1-P) but not 6-P-F-Asp"}]}]}
